The target in the assay is biotinylated His-Avi-TEAD (194-411) (UniProt P28347). Briefly: SSM screen, enrichment after two rounds of sorting.
For the molecule GSPDEYIERAKECCHKGDIQCCLRYFEESGDPNVMLICLFCP (designed binder) [K13H variant of SEQ ID NO: 1], the enrichment score is -0.44.

GSPDEYIERAKECCKKGRIQCCLRYFEESGDPNVMLICLFCP (designed binder) [D16R variant of SEQ ID NO: 1]: the enrichment score is -5.59.

Consider GSPDEYIERAKECCKTGDIQCCLRYFEESGDPNVMLICLFCP (designed binder) [K14T variant of SEQ ID NO: 1], for which the enrichment score amounted to 3.18.

Molecule GSPDEYIERAKECCKKGDIRCCLRYFEESGDPNVMLICLFCP (designed binder) [Q18R variant of SEQ ID NO: 1] gave an enrichment score of -3.67.

GSPDEYIERAKECCKKGDRQCCLRYFEESGDPNVMLICLFCP (designed binder) [I17R variant of SEQ ID NO: 1] yielded an enrichment score of 0.46.

In turn, GSPDEYIERAKECCKKQDIQCCLRYFEESGDPNVMLICLFCP (designed binder) [G15Q variant of SEQ ID NO: 1] had an enrichment score of 2.5.

In turn, GSPDEYIERAKECCRKGDIQCCLRYFEESGDPNVMLICLFCP (designed binder) [K13R variant of SEQ ID NO: 1] registered an enrichment score of -0.81.

GSPDEYIERAKECCKQGDIQCCLRYFEESGDPNVMLICLFCP (designed binder) [K14Q variant of SEQ ID NO: 1] came in with an enrichment score of 0.17.

As for GSPDEYIERAKECCKKKDIQCCLRYFEESGDPNVMLICLFCP (designed binder) [G15K variant of SEQ ID NO: 1], the enrichment score was determined as 4.43.

GSPDEYIERAKECCKKTDIQCCLRYFEESGDPNVMLICLFCP (designed binder) [G15T variant of SEQ ID NO: 1] displayed an enrichment score of 2.65.

Turning to GSPDEYIERAKECCKKGTIQCCLRYFEESGDPNVMLICLFCP (designed binder) [D16T variant of SEQ ID NO: 1], the enrichment score was -10.

In the case of GSPDEYIERAKECCKHGDIQCCLRYFEESGDPNVMLICLFCP (designed binder) [K14H variant of SEQ ID NO: 1], the enrichment score is 0.53.

In turn, GSPDEYIERAKECCKKGDIKCCLRYFEESGDPNVMLICLFCP (designed binder) [Q18K variant of SEQ ID NO: 1] yielded an enrichment score of -1.54.

GSPDEYIERAKECCKKGDAQCCLRYFEESGDPNVMLICLFCP (designed binder) [I17A variant of SEQ ID NO: 1]: the enrichment score was -4.36.

In the case of GSPDEYIERAKECCKKGDTQCCLRYFEESGDPNVMLICLFCP (designed binder) [I17T variant of SEQ ID NO: 1], the enrichment score amounted to 2.21.

In turn, GSPDEYIERAKECCKKGIIQCCLRYFEESGDPNVMLICLFCP (designed binder) [D16I variant of SEQ ID NO: 1] came in with an enrichment score of -6.42.

The molecule GSPDEYIERAKECCKKGDMQCCLRYFEESGDPNVMLICLFCP (designed binder) [I17M variant of SEQ ID NO: 1] registered an enrichment score of -2.95.

GSPDEYIERAKECCKKGDHQCCLRYFEESGDPNVMLICLFCP (designed binder) [I17H variant of SEQ ID NO: 1] returned an enrichment score of -3.33.

Consider GSPDEYIERAKECCSKGDIQCCLRYFEESGDPNVMLICLFCP (designed binder) [K13S variant of SEQ ID NO: 1], for which the enrichment score was 1.43.

For GSPDEYIERAKECCNKGDIQCCLRYFEESGDPNVMLICLFCP (designed binder) [K13N variant of SEQ ID NO: 1], the enrichment score was 0.6.

GSPDEYIERAKECCKKMDIQCCLRYFEESGDPNVMLICLFCP (designed binder) [G15M variant of SEQ ID NO: 1] returned an enrichment score of 1.64.

Molecule GSPDEYIERAKECCKKNDIQCCLRYFEESGDPNVMLICLFCP (designed binder) [G15N variant of SEQ ID NO: 1] came in with an enrichment score of 3.06.

With GSPDEYIERAKECCKAGDIQCCLRYFEESGDPNVMLICLFCP (designed binder) [K14A variant of SEQ ID NO: 1], the enrichment score is -0.22.

With GSPDEYIERAKECCQKGDIQCCLRYFEESGDPNVMLICLFCP (designed binder) [K13Q variant of SEQ ID NO: 1], the enrichment score came out at 2.23.

For GSPDEYIERAKECCKKGDIMCCLRYFEESGDPNVMLICLFCP (designed binder) [Q18M variant of SEQ ID NO: 1], the enrichment score is -9.52.

Regarding GSPDEYIERAKECCKKGDIHCCLRYFEESGDPNVMLICLFCP (designed binder) [Q18H variant of SEQ ID NO: 1], the enrichment score was -4.39.

On to GSPDEYIERAKECCIKGDIQCCLRYFEESGDPNVMLICLFCP (designed binder) [K13I variant of SEQ ID NO: 1], for which the enrichment score was -1.54.

In turn, GSPDEYIERAKECCKIGDIQCCLRYFEESGDPNVMLICLFCP (designed binder) [K14I variant of SEQ ID NO: 1] registered an enrichment score of -0.99.

Consider GSPDEYIERAKECCMKGDIQCCLRYFEESGDPNVMLICLFCP (designed binder) [K13M variant of SEQ ID NO: 1], for which the enrichment score is -0.4.

On to GSPDEYIERAKECCKKGHIQCCLRYFEESGDPNVMLICLFCP (designed binder) [D16H variant of SEQ ID NO: 1], for which the enrichment score was -4.55.

Take GSPDEYIERAKECCKKGAIQCCLRYFEESGDPNVMLICLFCP (designed binder) [D16A variant of SEQ ID NO: 1]: the enrichment score is -5.23.

GSPDEYIERAKECCKKGDQQCCLRYFEESGDPNVMLICLFCP (designed binder) [I17Q variant of SEQ ID NO: 1] had an enrichment score of -3.1.

Molecule GSPDEYIERAKECCKNGDIQCCLRYFEESGDPNVMLICLFCP (designed binder) [K14N variant of SEQ ID NO: 1] showed an enrichment score of 1.51.

Turning to GSPDEYIERAKECCKKGDSQCCLRYFEESGDPNVMLICLFCP (designed binder) [I17S variant of SEQ ID NO: 1], the enrichment score was -2.1.

With GSPDEYIERAKECCKKRDIQCCLRYFEESGDPNVMLICLFCP (designed binder) [G15R variant of SEQ ID NO: 1], the enrichment score is 0.91.

GSPDEYIERAKECCKKGNIQCCLRYFEESGDPNVMLICLFCP (designed binder) [D16N variant of SEQ ID NO: 1] came in with an enrichment score of -2.7.

GSPDEYIERAKECCKKADIQCCLRYFEESGDPNVMLICLFCP (designed binder) [G15A variant of SEQ ID NO: 1] yielded an enrichment score of 1.89.

In turn, GSPDEYIERAKECCKKGDINCCLRYFEESGDPNVMLICLFCP (designed binder) [Q18N variant of SEQ ID NO: 1] yielded an enrichment score of -0.16.

In turn, GSPDEYIERAKECCKKGSIQCCLRYFEESGDPNVMLICLFCP (designed binder) [D16S variant of SEQ ID NO: 1] registered an enrichment score of -2.71.

The molecule GSPDEYIERAKECCAKGDIQCCLRYFEESGDPNVMLICLFCP (designed binder) [K13A variant of SEQ ID NO: 1] registered an enrichment score of 1.94.

GSPDEYIERAKECCKKGKIQCCLRYFEESGDPNVMLICLFCP (designed binder) [D16K variant of SEQ ID NO: 1] registered an enrichment score of -6.95.

Consider GSPDEYIERAKECCKKGQIQCCLRYFEESGDPNVMLICLFCP (designed binder) [D16Q variant of SEQ ID NO: 1], for which the enrichment score is -3.47.

Molecule GSPDEYIERAKECCLKGDIQCCLRYFEESGDPNVMLICLFCP (designed binder) [K13L variant of SEQ ID NO: 1] gave an enrichment score of -1.37.

Consider GSPDEYIERAKECCKKGDIACCLRYFEESGDPNVMLICLFCP (designed binder) [Q18A variant of SEQ ID NO: 1], for which the enrichment score is -1.53.

GSPDEYIERAKECCKRGDIQCCLRYFEESGDPNVMLICLFCP (designed binder) [K14R variant of SEQ ID NO: 1] had an enrichment score of -1.06.

The molecule GSPDEYIERAKECCKKHDIQCCLRYFEESGDPNVMLICLFCP (designed binder) [G15H variant of SEQ ID NO: 1] registered an enrichment score of 3.18.

On to GSPDEYIERAKECCKKSDIQCCLRYFEESGDPNVMLICLFCP (designed binder) [G15S variant of SEQ ID NO: 1], for which the enrichment score is 2.37.

For GSPDEYIERAKECCKKGDITCCLRYFEESGDPNVMLICLFCP (designed binder) [Q18T variant of SEQ ID NO: 1], the enrichment score is -2.28.

Molecule GSPDEYIERAKECCKSGDIQCCLRYFEESGDPNVMLICLFCP (designed binder) [K14S variant of SEQ ID NO: 1] yielded an enrichment score of 1.61.

In turn, GSPDEYIERAKECCKKGDNQCCLRYFEESGDPNVMLICLFCP (designed binder) [I17N variant of SEQ ID NO: 1] registered an enrichment score of 0.47.

For the molecule GSPDEYIERAKECCKKGDKQCCLRYFEESGDPNVMLICLFCP (designed binder) [I17K variant of SEQ ID NO: 1], the enrichment score was -4.53.

For GSPDEYIERAKECCKMGDIQCCLRYFEESGDPNVMLICLFCP (designed binder) [K14M variant of SEQ ID NO: 1], the enrichment score is -0.92.

GSPDEYIERAKECCTKGDIQCCLRYFEESGDPNVMLICLFCP (designed binder) [K13T variant of SEQ ID NO: 1] yielded an enrichment score of 1.49.

With GSPDEYIERAKECCKKGMIQCCLRYFEESGDPNVMLICLFCP (designed binder) [D16M variant of SEQ ID NO: 1], the enrichment score was -4.12.

Molecule GSPDEYIERAKECCKKIDIQCCLRYFEESGDPNVMLICLFCP (designed binder) [G15I variant of SEQ ID NO: 1] showed an enrichment score of -1.96.

For the molecule GSPDEYIERAKECCKKGDISCCLRYFEESGDPNVMLICLFCP (designed binder) [Q18S variant of SEQ ID NO: 1], the enrichment score was -1.25.

On to GSPDEYIERAKECCKKGDIICCLRYFEESGDPNVMLICLFCP (designed binder) [Q18I variant of SEQ ID NO: 1], for which the enrichment score is -11.4.

(Values after patent publication US20230151068A1.)
